Results taken from patent US20200147161A1 (University of Texas, published 2020).
Values belong to the binder of their own block, whether it stands above or below them.

Key:
[1] = biological target: T1, HLA-A2 on T2 cells (human); assay: HLA-A2 stabilisation on T2 cells, 18 hours, flow cytometry, FI index
T1 construct: The text of the assay says only 'HLA-A2'; also called HLA-A2 allele
Procedure: The peptides were synthesized and pulsed with T2 cells with a series of diluted concentrations for 18 hours. After incubation, the HLA-A2 expression level of T2 was detected by flow cytometry and the FI index was calculated. The M27 peptide was used as a weak binding peptide control and the M26 peptide was used as a strong binding peptide control.

[2] = biological target: T2, VCX/Y family (VCX1, VCX2, VCX3A, VCX3B, VCY); VCX54 peptide peptide on HLA-A*02:01 (human); assay: multimer staining
T2 peptide: GAATKMAAV

[3] = biological target: T3, VCY; VCY-37 peptide peptide on HLA-A*02:01 (human); assay: multimer staining
T3 peptide: KVAEKGEAV

[4] = biological target: T1, HLA-A2 on T2 cells; assay: HLA-A2 stabilisation on T2 cells, 18 hr, flow cytometry, fluorescence index
Procedure: The predicted peptides were synthesized and co-cultured with T2 cells with a series of diluted concentrations. DMSO without peptide or with the same concentration of negative binding to HLA-A2 peptide were used as control. After 18 hr incubation, the HLA-A2 expression was detected by flow cytometer. The fluorescence index (FI) was calculated as follows: FI=(mean fluorescence with the given peptide−mean fluorescence without peptide)/(mean fluorescence without peptide). […] The VCX54 epitope is found in all members of the VCX/Y family including VCX1, VCX2, VCX3A, VCX3B, or VCY which are expressed in various lung cancer cells (FIG. 1B).

Binder: KMAAVEAPEA (Synthetic 10-mer) [VCX-58 peptide (KMAAVEAPEA)]
binding result [1]: binds

Binder: KVAEKGEAV (Synthetic 9-mer from VCY) [VCY-37 peptide (KVAEKGEAV)]
binding result [1]: binds

B3: VCX54 peptide (GAATKMAAV) (peptide)
peptide: GAATKMAAV
notes: Synthetic 9-mer shared by all VCX/Y family members; added to T2 cells in the HLA-A2 stabilisation assay; also called GAATKMAAV (54)
binding result [4]: binds

Results, then the binder that gave them:

binding result [2]: recognises
B1: VCX54 CTL Clone-7 TCR (TCR, V domains shown)
Valpha: AQKITQTQPGMFVQEKEAVTLDCTYDTSDPSYGLFWYKQPSSGEMIFLIYQGSYDQQNATEGRYSLNFQKARKSANLVISASQLGDSAMYFCAMITSGNTGKLIFGQGTTLQVKP
Vbeta: AAGVIQSPRHLIKEKRETATLKCYPIPRHDTVYWYQQGPGQDPQFLISFYEKMQSDKGSIPDRFSAQQFSDYHSELNMSSLELGDSALYFCASSPPGGGRTEAFFGQGTRLTVV

binding result [3]: recognises
B2: VCY-37 CTL TCR (TCR, V domains shown)
Valpha: AQKVTQAQTEISVVEKEDVTLDCVYETRDTTYYLFWYKQPPSGELVFLIRRNSFDEQNEISGRYSWNFQKSTSSFNFTITASQVVDSAVYFCALSLLSYNTDKLIFGTGTRLQVFP
Vbeta: DTGVSQDPRHKITKRGQNVTFRCDPISEHNRLYWYRQTLGQGPEFLTYFQNEAQLEKSRLLSDRFSAERPKGSFSTLEIQRTEQGDSAMYLCASSTPGPSGANVLTFGAGSRLTVL
